Patent US11419921B2, “Methods of treating neurological disorders” (EnClear Therapies, Inc., priority 2018, dated 2022)

Test system: (GR)10
Experiment: Cleavage of (GR)10 by enzymes in solution (PBS with CaCl2 and MgCl2), LC/MS of GR repeats
Type: biochemical
Settings: for (GR)1 concentration / (GR)2 concentration / (GR)4 concentration / (GR)6 concentration / (GR)8 concentration / (GR)10 concentration: (GR)10 50 μM; for (GR)1 / (GR)2 / (GR)3 / (GR)4 / (GR)5 / (GR)6 / (GR)8 / (GR)10: PBS, normalized
Method in brief: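 (GR)10 at 50 μM final incubated with enzyme in PBS containing CaCl2 and MgCl2 (activators added as needed) at room temperature. Reactions quenched with TFA at 0, 5, 10, 30, 60 and 180 min. LC/MS quantified remaining GR repeats of each length.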

B1: Clostripain: sulfhydryl protease cleaving at the C-terminus of arginine residues; in Table 23 also immobilized on agarose resin (protein)
chain: NKNQKVTIMYYCDADNNLEGSLLNDIEEMKTGYKDSPNLNLIALVDRSPRYSSDEKVLGEDFSDTRLYKIEHNKANRLDGKNEFPEISTTSKYEANMGDPEVLKKFIDYCKSNYEADKYVLIMANHGGGAREKSNPRLNRAICWDDSNLDKNGEADCLYMGEISDHLTEKQSVDLLAFDACLMGTAEVAYQYRPGNGGFSADTLVASSPVVWGPGFKYDKIFDRIKAGGGTNNEDDLTLGGKEQNFDPATITNEQLGALFVEEQRDSTHANGRYDQHLSFYDLKKAESVKRAIDNLAVNLSNENKKSEIEKLRGSGIHTDLMHYFDEYSEGEWVEYPYFDVYDLCEKINKSENFSSKTKDLASNAMNKLNEMIVYSFGDPSNNFKEGKNGLSIFLPNGDKKYSTYYTSTKIPHWTMQSWYNSIDTVKYGLNPYGKLSWCKDGQDPEINKVGNWFELLDSWFDKTNDVTGGVNHYQW
B1 was tested, and the “(GR)1 concentration” value (enzyme 2.5 μg/mL, 0 min) was “BLQ”, the “(GR)2 concentration” value (enzyme 2.5 μg/mL, 0 min) was “BLQ” and the “(GR)4 concentration” value (enzyme 2.5 μg/mL, 0 min) was “BLQ”. The “(GR)6 concentration” value (enzyme 2.5 μg/mL, 0 min) was “BLQ”, the “(GR)8 concentration” value (enzyme 2.5 μg/mL, 0 min) was 0.7 µM and the “(GR)10 concentration” value (enzyme 2.5 μg/mL, 0 min) was 39.7 µM. For the same molecule, the “(GR)1 concentration” value (enzyme 2.5 μg/mL, 5 min) was 25.6 µM, the “(GR)2 concentration” value (enzyme 2.5 μg/mL, 5 min) was 8.7 µM and the “(GR)4 concentration” value (enzyme 2.5 μg/mL, 5 min) was 6.7 µM. For the same molecule, the “(GR)6 concentration” value (enzyme 2.5 μg/mL, 5 min) was 3.6 µM, the “(GR)8 concentration” value (enzyme 2.5 μg/mL, 5 min) was 2.2 µM and the “(GR)10 concentration” value (enzyme 2.5 μg/mL, 5 min) was 5.4 µM. The “(GR)1 concentration” value (enzyme 2.5 μg/mL, 10 min) was 35.3 µM, the “(GR)2 concentration” value (enzyme 2.5 μg/mL, 10 min) was 14.0 µM and the “(GR)4 concentration” value (enzyme 2.5 μg/mL, 10 min) was 9.8 µM. For the same molecule, the “(GR)6 concentration” value (enzyme 2.5 μg/mL, 10 min) was 4.3 µM, the “(GR)8 concentration” value (enzyme 2.5 μg/mL, 10 min) was 1.8 µM and the “(GR)10 concentration” value (enzyme 2.5 μg/mL, 10 min) was 2.3 µM. The “(GR)1 concentration” value (enzyme 2.5 μg/mL, 30 min) was 72.9 µM, the “(GR)2 concentration” value (enzyme 2.5 μg/mL, 30 min) was 36.8 µM and the “(GR)4 concentration” value (enzyme 2.5 μg/mL, 30 min) was 7.5 µM. For the same molecule, the “(GR)6 concentration” value (enzyme 2.5 μg/mL, 30 min) was 1.4 µM, the “(GR)8 concentration” value (enzyme 2.5 μg/mL, 30 min) was “BLQ” and the “(GR)10 concentration” value (enzyme 2.5 μg/mL, 30 min) was “BLQ”. The “(GR)1 concentration” value (enzyme 2.5 μg/mL, 60 min) was 148.6 µM, the “(GR)2 concentration” value (enzyme 2.5 μg/mL, 60 min) was 62.1 µM and the “(GR)4 concentration” value (enzyme 2.5 μg/mL, 60 min) was 1.9 µM. The “(GR)6 concentration” value (enzyme 2.5 μg/mL, 60 min) was “BLQ”, the “(GR)8 concentration” value (enzyme 2.5 μg/mL, 60 min) was “BLQ” and the “(GR)10 concentration” value (enzyme 2.5 μg/mL, 60 min) was “BLQ”. The “(GR)1 concentration” value (enzyme 2.5 μg/mL, 120 min) was 325.0 µM, the “(GR)2 concentration” value (enzyme 2.5 μg/mL, 120 min) was “BLQ” and the “(GR)4 concentration” value (enzyme 2.5 μg/mL, 120 min) was “BLQ”. For the same molecule, the “(GR)6 concentration” value (enzyme 2.5 μg/mL, 120 min) was “BLQ”, the “(GR)8 concentration” value (enzyme 2.5 μg/mL, 120 min) was “BLQ” and the “(GR)10 concentration” value (enzyme 2.5 μg/mL, 120 min) was “BLQ”. The “(GR)1 concentration” value (enzyme 10 μg/mL, 0 min) was “BLQ”, the “(GR)2 concentration” value (enzyme 10 μg/mL, 0 min) was “BLQ” and the “(GR)4 concentration” value (enzyme 10 μg/mL, 0 min) was “BLQ”. The “(GR)6 concentration” value (enzyme 10 μg/mL, 0 min) was “BLQ”, the “(GR)8 concentration” value (enzyme 10 μg/mL, 0 min) was 0.6 µM and the “(GR)10 concentration” value (enzyme 10 μg/mL, 0 min) was 37.9 µM. For the same molecule, the “(GR)1 concentration” value (enzyme 10 μg/mL, 5 min) was 99.0 µM, the “(GR)2 concentration” value (enzyme 10 μg/mL, 5 min) was 51.8 µM and the “(GR)4 concentration” value (enzyme 10 μg/mL, 5 min) was 5.4 µM. The “(GR)6 concentration” value (enzyme 10 μg/mL, 5 min) was 0.6 µM, the “(GR)8 concentration” value (enzyme 10 μg/mL, 5 min) was “BLQ” and the “(GR)10 concentration” value (enzyme 10 μg/mL, 5 min) was 0.8 µM. The “(GR)1 concentration” value (enzyme 10 μg/mL, 10 min) was 145.9 µM, the “(GR)2 concentration” value (enzyme 10 μg/mL, 10 min) was 62.2 µM and the “(GR)4 concentration” value (enzyme 10 μg/mL, 10 min) was 1.8 µM. The “(GR)6 concentration” value (enzyme 10 μg/mL, 10 min) was “BLQ”, the “(GR)8 concentration” value (enzyme 10 μg/mL, 10 min) was “BLQ” and the “(GR)10 concentration” value (enzyme 10 μg/mL, 10 min) was “BLQ”. The “(GR)1 concentration” value (enzyme 10 μg/mL, 30 min) was 336.9 µM, the “(GR)2 concentration” value (enzyme 10 μg/mL, 30 min) was “BLQ” and the “(GR)4 concentration” value (enzyme 10 μg/mL, 30 min) was “BLQ”. For the same molecule, the “(GR)6 concentration” value (enzyme 10 μg/mL, 30 min) was “BLQ”, the “(GR)8 concentration” value (enzyme 10 μg/mL, 30 min) was “BLQ” and the “(GR)10 concentration” value (enzyme 10 μg/mL, 30 min) was “BLQ”. For the same molecule, the “(GR)1 concentration” value (enzyme 10 μg/mL, 60 min) was 340.3 µM, the “(GR)2 concentration” value (enzyme 10 μg/mL, 60 min) was “BLQ” and the “(GR)4 concentration” value (enzyme 10 μg/mL, 60 min) was “BLQ”. The “(GR)6 concentration” value (enzyme 10 μg/mL, 60 min) was “BLQ”, the “(GR)8 concentration” value (enzyme 10 μg/mL, 60 min) was “BLQ” and the “(GR)10 concentration” value (enzyme 10 μg/mL, 60 min) was “BLQ”. For the same molecule, the “(GR)1 concentration” value (enzyme 10 μg/mL, 120 min) was 355.8 µM, the “(GR)2 concentration” value (enzyme 10 μg/mL, 120 min) was “BLQ” and the “(GR)4 concentration” value (enzyme 10 μg/mL, 120 min) was “BLQ”. For the same molecule, the “(GR)6 concentration” value (enzyme 10 μg/mL, 120 min) was “BLQ”, the “(GR)8 concentration” value (enzyme 10 μg/mL, 120 min) was “BLQ” and the “(GR)10 concentration” value (enzyme 10 μg/mL, 120 min) was “BLQ”. For the same molecule, the “(GR)1” value (in solution - 5 min reaction) was 82.6 µM, the “(GR)2” value (in solution - 5 min reaction) was 106.2 µM and the “(GR)3” value (in solution - 5 min reaction) was 39.1 µM. For the same molecule, the “(GR)4” value (in solution - 5 min reaction) was 28.6 µM, the “(GR)5” value (in solution - 5 min reaction) was 12.7 µM and the “(GR)6” value (in solution - 5 min reaction) was 8.4 µM. The “(GR)8” value (in solution - 5 min reaction) was 0.0 µM, the “(GR)10” value (in solution - 5 min reaction) was 12.4 µM and the “(GR)1” value (in solution - 60 min reaction) was 383.2 µM. The “(GR)2” value (in solution - 60 min reaction) was 0.0 µM, the “(GR)3” value (in solution - 60 min reaction) was 0.0 µM and the “(GR)4” value (in solution - 60 min reaction) was 0.0 µM. For the same molecule, the “(GR)5” value (in solution - 60 min reaction) was 0.0 µM, the “(GR)6” value (in solution - 60 min reaction) was 0.0 µM and the “(GR)8” value (in solution - 60 min reaction) was 0.0 µM. For the same molecule, the “(GR)10” value (in solution - 60 min reaction) was 0.0 µM.
